For seven molecules, normalised SPOT signal, Boehringer light units (BLU); mean over the file's lines of this peptide results are on record in article PMC314469, “Protein Interaction Networks by Proteome Peptide Scanning” (PLoS Biology, 2004).

Sequence of Sho1 SH3 (SHO1_YEAST), P40073 (P40073 295-366): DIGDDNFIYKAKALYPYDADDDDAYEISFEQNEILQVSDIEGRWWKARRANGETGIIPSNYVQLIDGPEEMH

The first test has as its target T1, Boi1 SH3 (BOI1_YEAST), P38041.
T1 chain: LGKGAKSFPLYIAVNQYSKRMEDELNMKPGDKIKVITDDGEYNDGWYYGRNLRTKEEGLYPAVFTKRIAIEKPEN
Nature of the test: SPOT array.
In turn, YVKERRPPPPPPLL [YLR425W 99-112] gave a normalised SPOT signal, Boehringer light units (BLU); mean over the file's lines of this peptide of 17.5.

In turn, YPNGRTLPPVPTQV [YER064C 178-191] displayed a normalised SPOT signal, Boehringer light units (BLU); mean over the file's lines of this peptide of -0.

The molecule YKNRKNLPTIPIRL [YGL085W 139-152] showed a normalised SPOT signal, Boehringer light units (BLU); mean over the file's lines of this peptide of 12400.

Molecule YGDNKKNPESPESV [YDL133W 210-223] returned a normalised SPOT signal, Boehringer light units (BLU); mean over the file's lines of this peptide of 79.4.

The molecule YEGPRGAPGMPEML [YJR016C 463-476] yielded a normalised SPOT signal, Boehringer light units (BLU); mean over the file's lines of this peptide of 64.

The molecule YILPKTDPRSPYYI [YPR115W 96-109] gave a normalised SPOT signal, Boehringer light units (BLU); mean over the file's lines of this peptide of 222.

Consider YDLTRFLPNHPGGQ [YML054C 114-127], for which the normalised SPOT signal, Boehringer light units (BLU); mean over the file's lines of this peptide was 59.5.

A further test addresses T2, Boi2 SH3 (BOI2_YEAST), P39969.
T2 chain: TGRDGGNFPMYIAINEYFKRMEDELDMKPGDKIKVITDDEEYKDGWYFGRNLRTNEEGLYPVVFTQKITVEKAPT
The test is described as follows: SPOT array.
Take YVKERRPPPPPPLL [YLR425W 99-112]: the normalised SPOT signal, Boehringer light units (BLU); mean over the file's lines of this peptide was 17.8.

YPNGRTLPPVPTQV [YER064C 178-191] returned a normalised SPOT signal, Boehringer light units (BLU); mean over the file's lines of this peptide of 18.3.

As for YKNRKNLPTIPIRL [YGL085W 139-152], the normalised SPOT signal, Boehringer light units (BLU); mean over the file's lines of this peptide is 48.9.

The molecule YGDNKKNPESPESV [YDL133W 210-223] showed a normalised SPOT signal, Boehringer light units (BLU); mean over the file's lines of this peptide of 8.4.

Regarding YEGPRGAPGMPEML [YJR016C 463-476], the normalised SPOT signal, Boehringer light units (BLU); mean over the file's lines of this peptide worked out at 26.3.

As to YILPKTDPRSPYYI [YPR115W 96-109], the normalised SPOT signal, Boehringer light units (BLU); mean over the file's lines of this peptide came to 44.9.

YDLTRFLPNHPGGQ [YML054C 114-127] yielded a normalised SPOT signal, Boehringer light units (BLU); mean over the file's lines of this peptide of 46.2.

Another test has as its target T3, Myo5 SH3 (MYO5_YEAST), Q04439.
T3 chain: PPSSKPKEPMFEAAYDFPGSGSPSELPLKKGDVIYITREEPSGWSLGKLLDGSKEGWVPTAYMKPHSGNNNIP
The test is described as follows: SPOT array.
YVKERRPPPPPPLL [YLR425W 99-112]: the normalised SPOT signal, Boehringer light units (BLU); mean over the file's lines of this peptide came out at 15900.

YPNGRTLPPVPTQV [YER064C 178-191] returned a normalised SPOT signal, Boehringer light units (BLU); mean over the file's lines of this peptide of 172.

The molecule YKNRKNLPTIPIRL [YGL085W 139-152] yielded a normalised SPOT signal, Boehringer light units (BLU); mean over the file's lines of this peptide of 961.

The molecule YGDNKKNPESPESV [YDL133W 210-223] registered a normalised SPOT signal, Boehringer light units (BLU); mean over the file's lines of this peptide of 147.

YEGPRGAPGMPEML [YJR016C 463-476] returned a normalised SPOT signal, Boehringer light units (BLU); mean over the file's lines of this peptide of 166.

Turning to YILPKTDPRSPYYI [YPR115W 96-109], the normalised SPOT signal, Boehringer light units (BLU); mean over the file's lines of this peptide was found to be 188.

For YDLTRFLPNHPGGQ [YML054C 114-127], the normalised SPOT signal, Boehringer light units (BLU); mean over the file's lines of this peptide stood at 80.6.

In a further test the target is T4, Rvs167 SH3 (RV167_YEAST), P39743.
T4 chain: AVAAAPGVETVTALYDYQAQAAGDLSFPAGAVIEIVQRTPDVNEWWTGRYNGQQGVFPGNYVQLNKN
Nature of the test: SPOT array.
For the molecule YVKERRPPPPPPLL [YLR425W 99-112], the normalised SPOT signal, Boehringer light units (BLU); mean over the file's lines of this peptide stood at 163.

YPNGRTLPPVPTQV [YER064C 178-191]: the normalised SPOT signal, Boehringer light units (BLU); mean over the file's lines of this peptide stood at 922.

In turn, YKNRKNLPTIPIRL [YGL085W 139-152] displayed a normalised SPOT signal, Boehringer light units (BLU); mean over the file's lines of this peptide of 2750.

Regarding YGDNKKNPESPESV [YDL133W 210-223], the normalised SPOT signal, Boehringer light units (BLU); mean over the file's lines of this peptide is 3.3.

In turn, YEGPRGAPGMPEML [YJR016C 463-476] returned a normalised SPOT signal, Boehringer light units (BLU); mean over the file's lines of this peptide of 63.3.

Molecule YILPKTDPRSPYYI [YPR115W 96-109] yielded a normalised SPOT signal, Boehringer light units (BLU); mean over the file's lines of this peptide of 176.

In turn, YDLTRFLPNHPGGQ [YML054C 114-127] showed a normalised SPOT signal, Boehringer light units (BLU); mean over the file's lines of this peptide of 20.5.

The next test concerns the target Sho1 SH3 (SHO1_YEAST), P40073. The test is described as follows: SPOT array.
Molecule YVKERRPPPPPPLL [YLR425W 99-112] yielded a normalised SPOT signal, Boehringer light units (BLU); mean over the file's lines of this peptide of 63.5.

Take YPNGRTLPPVPTQV [YER064C 178-191]: the normalised SPOT signal, Boehringer light units (BLU); mean over the file's lines of this peptide turned out to be 17400.

As for YKNRKNLPTIPIRL [YGL085W 139-152], the normalised SPOT signal, Boehringer light units (BLU); mean over the file's lines of this peptide was 28200.

Regarding YGDNKKNPESPESV [YDL133W 210-223], the normalised SPOT signal, Boehringer light units (BLU); mean over the file's lines of this peptide is 25.3.

YEGPRGAPGMPEML [YJR016C 463-476] returned a normalised SPOT signal, Boehringer light units (BLU); mean over the file's lines of this peptide of 39.6.

For YILPKTDPRSPYYI [YPR115W 96-109], the normalised SPOT signal, Boehringer light units (BLU); mean over the file's lines of this peptide came to 19.5.

As to YDLTRFLPNHPGGQ [YML054C 114-127], the normalised SPOT signal, Boehringer light units (BLU); mean over the file's lines of this peptide stood at 59.7.

A further test deals with T5, Yfr024 SH3 (LSB3_YEAST), P43603.
T5 chain: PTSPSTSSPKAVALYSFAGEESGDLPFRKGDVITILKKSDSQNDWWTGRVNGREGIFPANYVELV
Nature of the test: SPOT array.
The molecule YVKERRPPPPPPLL [YLR425W 99-112] showed a normalised SPOT signal, Boehringer light units (BLU); mean over the file's lines of this peptide of 330.

YPNGRTLPPVPTQV [YER064C 178-191] yielded a normalised SPOT signal, Boehringer light units (BLU); mean over the file's lines of this peptide of 1460.

Molecule YKNRKNLPTIPIRL [YGL085W 139-152] gave a normalised SPOT signal, Boehringer light units (BLU); mean over the file's lines of this peptide of 2960.

On to YGDNKKNPESPESV [YDL133W 210-223], for which the normalised SPOT signal, Boehringer light units (BLU); mean over the file's lines of this peptide is 13.3.

As for YEGPRGAPGMPEML [YJR016C 463-476], the normalised SPOT signal, Boehringer light units (BLU); mean over the file's lines of this peptide worked out at 131.

For YILPKTDPRSPYYI [YPR115W 96-109], the normalised SPOT signal, Boehringer light units (BLU); mean over the file's lines of this peptide was 113.

Molecule YDLTRFLPNHPGGQ [YML054C 114-127] returned a normalised SPOT signal, Boehringer light units (BLU); mean over the file's lines of this peptide of 147.

A further test concerns the target T6, Yhr016c SH3 (YSC84_YEAST), P32793.
T6 chain: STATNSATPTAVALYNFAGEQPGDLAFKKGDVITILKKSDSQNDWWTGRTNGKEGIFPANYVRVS
The test is described as follows: SPOT array.
Molecule YVKERRPPPPPPLL [YLR425W 99-112] showed a normalised SPOT signal, Boehringer light units (BLU); mean over the file's lines of this peptide of 32.3.

In turn, YPNGRTLPPVPTQV [YER064C 178-191] had a normalised SPOT signal, Boehringer light units (BLU); mean over the file's lines of this peptide of 505.

Molecule YKNRKNLPTIPIRL [YGL085W 139-152] returned a normalised SPOT signal, Boehringer light units (BLU); mean over the file's lines of this peptide of 538.

YGDNKKNPESPESV [YDL133W 210-223] showed a normalised SPOT signal, Boehringer light units (BLU); mean over the file's lines of this peptide of 19.5.

YEGPRGAPGMPEML [YJR016C 463-476] displayed a normalised SPOT signal, Boehringer light units (BLU); mean over the file's lines of this peptide of 15.4.

On to YILPKTDPRSPYYI [YPR115W 96-109], for which the normalised SPOT signal, Boehringer light units (BLU); mean over the file's lines of this peptide stood at 27.8.

On to YDLTRFLPNHPGGQ [YML054C 114-127], for which the normalised SPOT signal, Boehringer light units (BLU); mean over the file's lines of this peptide came out at 22.5.
